Results reported in US20080026996A1, “Selective Vpac2 Receptor Reptide Agonists” (ELI LILLY AND COMPANY, priority 2004, published 2008).
Where no end group is shown, it is not given here. [ ]: non-standard residue; d: D form. The star is where a group is joined. Orn = NCCC[C@H](N)C(=O)O; Hexanoyl = CCCCCC(=O)*; Aib = CC(C)(N)C(=O)O

Assays:
Assay in all cases: cell-based or functional assay
human VPAC2 receptor = target: T1, human VPAC2 receptor (human, UniProt P41587 24-438)
T1 sequence (looked up): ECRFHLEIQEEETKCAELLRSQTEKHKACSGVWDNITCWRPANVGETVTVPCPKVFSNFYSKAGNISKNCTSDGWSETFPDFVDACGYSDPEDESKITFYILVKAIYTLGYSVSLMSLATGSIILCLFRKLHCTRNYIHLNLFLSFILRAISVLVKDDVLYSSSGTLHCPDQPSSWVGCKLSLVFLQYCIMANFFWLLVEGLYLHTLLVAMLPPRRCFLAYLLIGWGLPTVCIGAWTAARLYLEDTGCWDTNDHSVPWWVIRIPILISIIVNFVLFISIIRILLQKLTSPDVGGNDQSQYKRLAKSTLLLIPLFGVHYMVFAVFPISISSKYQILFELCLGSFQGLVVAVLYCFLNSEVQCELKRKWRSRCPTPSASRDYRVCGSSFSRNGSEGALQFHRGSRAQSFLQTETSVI

rat VPAC1 receptor = target: T2, rat VPAC1 receptor (rat, UniProt P30083 31-459)
T2 sequence (looked up): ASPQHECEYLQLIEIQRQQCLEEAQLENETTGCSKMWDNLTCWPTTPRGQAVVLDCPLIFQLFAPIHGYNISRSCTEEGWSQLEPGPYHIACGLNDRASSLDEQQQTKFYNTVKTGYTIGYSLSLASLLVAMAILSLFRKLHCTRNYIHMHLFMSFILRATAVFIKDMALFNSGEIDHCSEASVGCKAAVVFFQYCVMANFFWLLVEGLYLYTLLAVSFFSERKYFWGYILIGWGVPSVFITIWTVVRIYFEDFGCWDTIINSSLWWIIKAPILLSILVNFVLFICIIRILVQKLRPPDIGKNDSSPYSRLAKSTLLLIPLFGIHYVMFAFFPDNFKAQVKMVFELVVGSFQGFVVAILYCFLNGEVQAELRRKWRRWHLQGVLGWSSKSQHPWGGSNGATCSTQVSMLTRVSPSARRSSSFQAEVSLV

human VPAC1 receptor = target: T3, human VPAC1 receptor (human, UniProt P32241 31-457)
T3 sequence (looked up): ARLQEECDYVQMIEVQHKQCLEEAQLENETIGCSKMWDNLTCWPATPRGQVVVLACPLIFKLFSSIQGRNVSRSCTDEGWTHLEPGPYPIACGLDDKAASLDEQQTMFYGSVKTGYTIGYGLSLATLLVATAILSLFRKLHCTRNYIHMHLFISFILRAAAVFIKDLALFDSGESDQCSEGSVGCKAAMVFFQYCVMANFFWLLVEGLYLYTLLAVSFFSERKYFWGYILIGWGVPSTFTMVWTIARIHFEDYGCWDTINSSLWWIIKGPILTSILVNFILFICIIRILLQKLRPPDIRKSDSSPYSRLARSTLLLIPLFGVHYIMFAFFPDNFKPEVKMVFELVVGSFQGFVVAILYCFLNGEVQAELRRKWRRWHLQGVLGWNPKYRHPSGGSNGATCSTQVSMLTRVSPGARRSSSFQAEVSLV

human PAC1 receptor = target: T4, human PAC1 receptor (human, UniProt P41586 21-468)
T4 sequence (looked up): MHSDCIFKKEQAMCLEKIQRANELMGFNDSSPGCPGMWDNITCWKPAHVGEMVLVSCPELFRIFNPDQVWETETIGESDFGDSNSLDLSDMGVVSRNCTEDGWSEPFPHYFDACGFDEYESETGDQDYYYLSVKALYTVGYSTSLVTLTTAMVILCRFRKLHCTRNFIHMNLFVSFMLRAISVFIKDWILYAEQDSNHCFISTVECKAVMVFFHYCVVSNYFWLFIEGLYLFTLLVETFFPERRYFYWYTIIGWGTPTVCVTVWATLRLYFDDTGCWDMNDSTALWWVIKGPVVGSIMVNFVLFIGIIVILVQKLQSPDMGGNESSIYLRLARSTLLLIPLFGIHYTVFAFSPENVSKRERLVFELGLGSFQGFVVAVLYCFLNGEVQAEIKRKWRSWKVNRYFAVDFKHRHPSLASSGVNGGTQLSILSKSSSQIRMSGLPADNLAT

Binder: Hexanoyl-HSDAVFTDNYTRLR[Aib]QLAA[Aib]KYLQSIKNKRYGGPSSGAPPPS (ends and bridges not checked) [P291]
- EC50 cAMP, Alpha Screen (human VPAC2 receptor): 0.36 nM
- EC50 cAMP, DiscoveRx (rat VPAC1 receptor): 1.12 nM

Binder: Hexanoyl-HSDAVFTDNYTRLRKQVAAKKYLQSIKNGGPSSGAPPPS [P154]
- EC50 cAMP, Alpha Screen (human VPAC2 receptor): 0.18 nM
- EC50 cAMP, DiscoveRx (rat VPAC1 receptor): 0.85 nM

Binder: Hexanoyl-HSDAVFTDNYTRLRKQVAAKKYLQSIKNKKGGPSSGAPPPS [P121]
- EC50 cAMP, Alpha Screen (human VPAC2 receptor): 0.1 nM
- EC50 cAMP, DiscoveRx (rat VPAC1 receptor): 0.66 nM

Binder: Hexanoyl-HSDAVFTDNYTRLRKQVAAKKYLQTIKNKRYGGPSSGAPPPS [P115]
- EC50 cAMP, Alpha Screen (human VPAC2 receptor): 0.2 nM
- EC50 cAMP, DiscoveRx (rat VPAC1 receptor): 0.95 nM

Binder: Hexanoyl-HSDAVFTDNYTRLRKQVAAKKYLQSIKNKRYGGPSSGAPPPC [P120]
- EC50 cAMP, DiscoveRx (rat VPAC1 receptor): 0.42 nM

Binder: Hexanoyl-HSDAVFTDNYTRLR[Aib]QVAA[Aib][Orn]YLQSIKNKRYGGPSSGAPPPS (ends and bridges not checked) [P342]
- EC50 cAMP, Alpha Screen (human VPAC2 receptor): 0.21 nM
- EC50 cAMP, DiscoveRx (rat VPAC1 receptor): 2.39 nM

Binder: Hexanoyl-HSDAVFTDNYTRLRKQMAAQKYLNQLKKGGPSSGAPPPS [P143]
- EC50 cAMP, Alpha Screen (human VPAC2 receptor): 0.1 nM
- EC50 cAMP, DiscoveRx (rat VPAC1 receptor): 3.81 nM

Binder: Hexanoyl-HSDAVFTDNYTRLQKQVAAK[Aib]YLQSIKNKRYGGPSSGAPPPS (ends and bridges not checked) [P251]
- EC50 cAMP, Alpha Screen (human VPAC2 receptor): 0.92 nM
- EC50 cAMP, DiscoveRx (rat VPAC1 receptor): 212 nM

Binder: HSDAVFTDNYTXLRXQVAAXKYLQSIKNKRYGGPSSGAPPPS (N-terminal hexanoyl (C6); Orn at 12; Aib at 15, 20) [P344]
- EC50 cAMP, Alpha Screen (human VPAC2 receptor): 0.13 nM
- EC50 cAMP, DiscoveRx (rat VPAC1 receptor): 1.56 nM

Binder: HSDAVYTDNYTRLRKQVAAKKYLQSIKNKRYGGPSSGAPPPS [P68]
- EC50 cAMP, DiscoveRx (human VPAC2 receptor): 20.3 nM
- EC50 cAMP, DiscoveRx (human VPAC1 receptor): 41 nM
- EC50 cAMP, DiscoveRx (human PAC1 receptor): 94.7 nM

Binder: HSDAWFTDNYTRLRKQVAAKKYLQSIKNKRYGGPSSGAPPPS [P69]
- EC50 cAMP, DiscoveRx (human VPAC2 receptor): 6.39 nM
- EC50 cAMP, DiscoveRx (human VPAC1 receptor): 8.48 nM
- EC50 cAMP, DiscoveRx (human PAC1 receptor): 104 nM

Binder: HSDALFTDNYTRLRKQVAAKKYLQSIKNKRYGGPSSGAPPPS (not fully specified) [P61]
- EC50 cAMP, DiscoveRx (human VPAC2 receptor): 2.14 nM
- EC50 cAMP, DiscoveRx (human VPAC1 receptor): 2.58 nM
- EC50 cAMP, DiscoveRx (human PAC1 receptor): 11.6 nM

Binder: HSDATFTDNYTRLRKQVAAKKYLQSIKNKRYGGPSSGAPPPS [P62]
- EC50 cAMP, DiscoveRx (human VPAC2 receptor): 13.2 nM
- EC50 cAMP, DiscoveRx (human VPAC1 receptor): 17 nM
- EC50 cAMP, DiscoveRx (human PAC1 receptor): 137 nM

Binder: HSDAVVTDNYTRLRKQVAAKKYLQSIKNKRYGGPSSGAPPPS [P66]
- EC50 cAMP, DiscoveRx (human VPAC2 receptor): > 1000 nM
- EC50 cAMP, DiscoveRx (human VPAC1 receptor): < 1000 nM
- EC50 cAMP, DiscoveRx (human PAC1 receptor): 1.4 nM

Binder: HSDAVITDNYTRLRKQVAAKKYLQSIKNKRYGGPSSGAPPPS [P63]
- EC50 cAMP, DiscoveRx (human VPAC2 receptor): > 1000 nM
- EC50 cAMP, DiscoveRx (human VPAC1 receptor): > 1000 nM
- EC50 cAMP, DiscoveRx (human PAC1 receptor): 0.9 nM

Binder: HSDAVFTDNYTRLRKQVAAKKYLQSIQNKRYGGPSSGAPPPS [P74]
- EC50 cAMP, DiscoveRx (human VPAC2 receptor): 2.72 nM
- EC50 cAMP, DiscoveRx (human VPAC1 receptor): 0.4 nM
- EC50 cAMP, DiscoveRx (human PAC1 receptor): 145 nM

Binder: HSDAVFTDNYTRLRKQVAAKKYLQSIKNNRYGGPSSGAPPPS [P75]
- EC50 cAMP, DiscoveRx (human VPAC2 receptor): 3.44 nM
- EC50 cAMP, DiscoveRx (human VPAC1 receptor): 0.65 nM
- EC50 cAMP, DiscoveRx (human PAC1 receptor): 13.4 nM

Binder: HSDAYFTDNYTRLRKQVAAKKYLQSIKNKRYGGPSSGAPPPS [P70]
- EC50 cAMP, DiscoveRx (human VPAC2 receptor): 4.89 nM
- EC50 cAMP, DiscoveRx (human VPAC1 receptor): 27.4 nM
- EC50 cAMP, DiscoveRx (human PAC1 receptor): 20.7 nM

Binder: HSDAVLTDNYTRLRKQVAAKKYLQSIKNKRYGGPSSGAPPPS [P64]
- EC50 cAMP, DiscoveRx (human VPAC2 receptor): > 1000 nM
- EC50 cAMP, DiscoveRx (human VPAC1 receptor): 221 nM
- EC50 cAMP, DiscoveRx (human PAC1 receptor): 0.1 nM

Binder: HSDAVTTDNYTRLRKQVAAKKYLQSIKNKRYGGPSSGAPPPS [P65]
- EC50 cAMP, DiscoveRx (human VPAC2 receptor): > 1000 nM
- EC50 cAMP, DiscoveRx (human VPAC1 receptor): > 1000 nM
- EC50 cAMP, DiscoveRx (human PAC1 receptor): 0.7 nM

Binder: HSDAVFTDNYTRLRKQVAAKKYLQSIKNKIYGGPSSGAPPPS [P76]
- EC50 cAMP, DiscoveRx (human VPAC2 receptor): 3.88 nM
- EC50 cAMP, DiscoveRx (human VPAC1 receptor): 0.8 nM
- EC50 cAMP, DiscoveRx (human PAC1 receptor): 15.9 nM

Binder: Hexanoyl-HSDAVFTDNYTRLRKQVAAKKYLQSIKQKGGPSSGAPPPS [P270]
- EC50 cAMP, Alpha Screen (human VPAC2 receptor): 0.13 nM
- EC50 cAMP, DiscoveRx (rat VPAC1 receptor): 0.67 nM

Binder: Hexanoyl-HSDAVFTDNYTRL[Aib]KQLAAK[Aib]YLQSIKNKRYGGPSSGAPPPS (ends and bridges not checked) [P241]
- EC50 cAMP, Alpha Screen (human VPAC2 receptor): 2.17 nM
- EC50 cAMP, DiscoveRx (rat VPAC1 receptor): 61.1 nM

Binder: Hexanoyl-HSDAVFTDNYTR[Aib]R[Aib]QVAA[Aib]KYLQSIKNKRYGGPSSGAPPPS (ends and bridges not checked) [P346]
- EC50 cAMP, Alpha Screen (human VPAC2 receptor): 0.23 nM
- EC50 cAMP, DiscoveRx (rat VPAC1 receptor): 3.02 nM

Binder: MHSDAVFTDNYTRLLAKLALQKYLQSIKNKRYGGPSSGAPPPS (N-terminal methionine added (M-)) [P140]
- EC50 cAMP, Alpha Screen (human VPAC2 receptor): 0.07 nM
- EC50 cAMP, DiscoveRx (rat VPAC1 receptor): 5.81 nM
